Measurements: patent publication US20100150916A1 (UNIVERSITAET STUTTGART, published 2010)

What was measured:
[1] = target: T1, TNFR2-Fas chimeric receptor (TNFR2-ED and Fas) on mouse embryonic fibroblasts (UniProt P20333 23-257; P25445 191-335); assay: indirect immunofluorescence flow cytometry on transfected mouse embryonic fibroblasts
T1 construct: extracellular domain;domain: cytoplasmic domain; Stably expressed on mouse embryonic fibroblasts
T1 sequence (looked up): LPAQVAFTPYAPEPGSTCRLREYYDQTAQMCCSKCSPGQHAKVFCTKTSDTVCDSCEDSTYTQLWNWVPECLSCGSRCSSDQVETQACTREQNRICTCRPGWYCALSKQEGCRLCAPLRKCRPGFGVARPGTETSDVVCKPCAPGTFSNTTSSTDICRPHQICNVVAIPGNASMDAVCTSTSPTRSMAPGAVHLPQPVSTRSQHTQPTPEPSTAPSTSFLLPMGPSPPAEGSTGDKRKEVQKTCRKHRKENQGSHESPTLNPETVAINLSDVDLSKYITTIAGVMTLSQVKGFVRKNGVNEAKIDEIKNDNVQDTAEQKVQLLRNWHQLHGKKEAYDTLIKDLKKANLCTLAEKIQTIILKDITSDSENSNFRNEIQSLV
Method: These transfectants were incubated on ice for two hours with 2.5 μg/ml of IZI-06.1-Fab (A-C, E, white histograms), the TNFR1-specific antibody mAb225 (D and F, white histograms), the TNFR2-specific antibody 80M2 (B, white+bold histogram) or were only treated with secondary antibodies as control (gray histograms). The incubation buffer was PBA (PBS+0.05% bovine serum albumin+0.02% NaN3). Cells were incubated with FITC-labeled secondary antibodies (80M2 and mAb225: Goat anti-murine IgG; IZI-06.1 Fab: Goat anti-HIS-tag) and cells were analyzed by flow cytometry. Cells were gated for viable cells and total fluorescence intensities (MnX) are given for each antibody. (Con=control values).
A His-tag positive IZI-06.1-Fab is used to determine specificity of TNFR1 binding or TNFR1-Fas binding, respectively as well as for characterization of the epitope recognized by the antibody derivative. […] This construct, however, is readily detected by another TNFR1-specific mab, mab225 (FIG. 7D).

[2] = target: T2, TNFR1-Fas chimeric receptor (extracellular domain of TNFR1 and cytoplasmic domain of death receptor Fas) on … (human, UniProt P19438 30-211; P25445 191-335); assay: saturation binding of 125I-labelled Fab to TNFR1-Fas positive mouse fibroblasts on ice, one-site hyperbola and Scatchard plot
T2 construct: extracellular domain;domain: cytoplasmic domain; Stably expressed on mouse embryonic fibroblasts; also called TNFR1-Fas chimera
T2 sequence (looked up): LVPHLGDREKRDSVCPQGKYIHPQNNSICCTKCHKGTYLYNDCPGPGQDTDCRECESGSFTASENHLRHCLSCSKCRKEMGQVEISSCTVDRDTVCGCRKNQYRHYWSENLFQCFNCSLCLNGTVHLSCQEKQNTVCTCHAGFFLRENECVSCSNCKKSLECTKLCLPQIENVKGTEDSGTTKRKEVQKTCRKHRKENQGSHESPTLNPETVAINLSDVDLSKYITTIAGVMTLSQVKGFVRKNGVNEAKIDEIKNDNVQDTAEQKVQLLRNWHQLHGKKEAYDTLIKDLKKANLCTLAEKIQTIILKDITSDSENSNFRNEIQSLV
Method: Nonspecific binding has been subtracted.
To determine the affinity (KD value) of IZI-06.1 Fab, 200.000 TNFR1-Fas positive cells are incubated on ice for three hours with increasing concentrations of labelled IZI-06.1 (2.5-50 ng in a total volume of 150 μl). As binding buffer, phosphate buffered saline+2% fetal calf serum+0.02% NaN₃ is used. Non-specific binding is determined by co-incubating cells with the 180-fold respective concentration of unlabelled IZI-06.1. Bound ¹²⁵I-Fab is determined with a gamma-counter and resulting data is used to fit a one-site binding hyperbola that contains the saturation binding constant KD: […]

B1: IZI-06.1 Fab (Fab, V domains shown)
VH: QVQLVQSGAEVKKPGSSVKVSCKASGYTFTDFYINWVRQAPGQGLEWIGEIYPYSGHAYYNEKFKARVTITADKSTSTAYMELSSLRSEDTAVYYCARWDFLDYWGQGTTVTVSS
VL: DIVMTQSPLSLPVTPGEPASISCRSSQSLLHSNGNTYLHWYLQKPGQSPQLLIYTVSNRFSGVPDRFSGSGSGTDFTLKISRVEAEDVGVYYCSQSTHVPYTFGGGTKVEIKR
modifications: 125I-labelled (chloramine T method) in the saturation binding study
notes: Fab expressed in the E. coli periplasm; the pelB leader is removed; also called humanized H398-Fab; Fab IZI-06.1; not shown: CH1 domain of the human immunoglobulin gamma1 heavy chain
binding result [1]: no binding (tested: 2.5 µg/ml)
Kd [2]: 0.778 nM
